Test results as given in patent US20190077864A1 (ONCOMED PHARMACEUTICALS, published 2019).
Values belong to the molecule of their own block, whether it stands above or below them.

What was measured:
[1] = target: murine TIGIT (mTIGIT) on B3Z T-cell hybridoma cells (mouse) (UniProt P86176); experiment: cell-based or functional assay
[2] = target: murine TIGIT (mTIGIT) tagged with FLAG and GFP, on cells (mouse) (UniProt P86176); experiment: cell-based or functional assay
hPVR-rbFc fusion protein = target: T1, hPVR-rbFc fusion protein (human, UniProt P15151 21-343); experiment: flow cytometry of hPVR-rbFc on HEK-293T cells with hTIGIT-CD4TM-GFP, detected with anti-rabbit Fc-PE, no antibody added
T1 construct: extracellular domain; Expressed in CHO cells, purified on protein A; also called human PVR-rabbit Fc fusion protein; not shown: rabbit Fc region
T1 sequence (looked up): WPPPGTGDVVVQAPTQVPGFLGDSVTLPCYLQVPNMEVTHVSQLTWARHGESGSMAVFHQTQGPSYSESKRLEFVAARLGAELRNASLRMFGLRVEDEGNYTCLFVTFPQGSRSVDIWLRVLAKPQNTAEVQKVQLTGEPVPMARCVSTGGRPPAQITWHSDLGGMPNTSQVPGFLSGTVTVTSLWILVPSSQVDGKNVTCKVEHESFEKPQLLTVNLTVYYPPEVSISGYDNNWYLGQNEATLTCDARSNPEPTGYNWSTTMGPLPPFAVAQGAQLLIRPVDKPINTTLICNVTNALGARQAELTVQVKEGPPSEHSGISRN
Experimental: FIGS. 19A and 19B. FACS analysis of anti-TIGIT antibody blocking binding of human TIGIT to PVR. […] Transfected cells were incubated with soluble human PVR-Fc fusion protein in the presence of antibodies generated to TIGIT (313R19, 313M26, or 313M32) at concentrations of 10, 2, or 0.4 μg/ml or no antibody and analyzed by flow cytometry. Specific binding is indicated by the presence of a diagonal signal within a FACS plot. […] Specific binding is indicated by the presence of a diagonal signal within a FACS plot.
After 16 hours, transfected cells were suspended in ice cold HBSS containing 2% FBS and heparin and incubated on ice with 0.5 μg/ml hPVR-rbFc fusion protein in the presence of anti-TIGIT antibodies 313R19, 313M26, or 313M32 for 60 minutes. Antibody 313R19 is a humanized version of a rabbit anti-TIGIT antibody. 313R19 binds mouse and human TIGIT. The antibodies were tested at concentrations of 10, 2, and 0.4 ug/ml. Cells were incubated without antibody or without hPVR-rbFc as controls. A second incubation with 100 μl PE-conjugated anti-rabbit Fc secondary antibody was performed to detect cells bound by the hPVR-rbFc fusion protein. The cells were analyzed on a FACSCanto instrument (BD Biosciences) and the data was processed using FlowJo software.

human TIGIT = target: T2, human TIGIT (human, UniProt Q495A1 22-141, limits assumed); experiment: Biacore, preliminary; format not stated
T2 construct: also called hTIGIT
T2 sequence: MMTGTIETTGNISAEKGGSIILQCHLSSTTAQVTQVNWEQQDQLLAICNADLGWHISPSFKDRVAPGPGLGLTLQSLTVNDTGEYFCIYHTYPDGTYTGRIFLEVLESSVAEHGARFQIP

[3] = target: T3, mouse TIGIT ECD-CD4TM-GFP on HEK-293T cells (mouse, UniProt P86176 29-148); experiment: flow cytometry of rabbit antibody supernatant on HEK-293T cells transiently transfected with mouse TIGIT ECD-CD4TM-GFP; antibody signal against GFP
T3 construct: The legend names the construct as mouse TIGIT ECD; also called mouse TIGIT-CD4TM-GFP; mTIGIT-CD4TM-GFP; not shown: transmembrane domain of CD4 (CD4TM); GFP (green fluorescent protein)
T3 sequence: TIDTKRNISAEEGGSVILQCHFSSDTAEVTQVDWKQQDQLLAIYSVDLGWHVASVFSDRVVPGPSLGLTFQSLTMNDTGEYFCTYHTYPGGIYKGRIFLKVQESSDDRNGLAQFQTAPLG

[4] = target: T3, mouse TIGIT ECD-CD4TM-GFP on HEK-293T …; experiment: flow cytometry, 1 µg/ml antibody on transiently transfected HEK-293T cells, PE-conjugated anti-Fc secondary, signal against TIGIT-GFP
Experimental: The TIGIT variants were evaluated by FACS with anti-hTIGIT antibodies. […] After 16 hours, transfected cells were suspended in ice cold HBSS containing 2% FBS and incubated on ice with 1 μg/ml anti-hTIGIT antibodies 313R12, 313M32, or 313M34 for 30 minutes. 313M34 is an anti-hTIGIT antibody that was generated based upon the amino acid sequences of the 10A7 antibody described in U.S. Publication 2009/0258013. The 10A7 antibody is an anti-mouse TIGIT antibody that binds both mouse TIGIT and human TIGIT. A second incubation with 50 μl PE-conjugated anti-Fc secondary antibody was performed to detect cells bound by the antibodies. The cells were analyzed on a FACSCanto instrument (BD Biosciences) and the data was processed using FlowJo software.

ratio of IL-2 secretion in response to mPVR-expressing tumor cells to that in response to mPVR-negative tumor cells (ELISA) [1]: < 1
Molecule: murine PVR (mPVR) on cells (ligand)
ratio of NK-92 cytotoxicity against 721.221-mPVR cells to that against parental 721.221 cells (calcein release) [2]: < 1

Kd (human TIGIT): 2 nM
B2: anti-TIGIT antibody 313R19 (antibody, human IgG1, kappa, V domains shown)
VH: QVQLQESGPGLVKPSETLSLTCTVSGFSLSSSYMSWIRQPPGKGLEWIGIIGSNGNTYYANWAKGRVTISKSSNQVSLKLSSVTAADTAVYYCARGGYRTSGMDPWGQGTLVTVSS
VL: DIQMTQSPSSLSASVGDRVTITCQASQNIYSDLAWYQQKPGKAPKLLIYRASTLASGVPSRFSGSGSGTDFTLTISSLQPEDFATYYCQQEHLVAWIYNVFGQGTKVEIKR
notes: Humanized rabbit antibody, human IgG1

binding result [3]: binds
B3: anti-TIGIT antibody 313Rb1 (antibody, V domains shown)
VH: QVQLESEGGLFKPTDTLTLTCTVSGSSLSSSYMSWVRQAPGKGLEWIGIIGSNGNTYYANWAKGRFTISKTSTTVELKITSPTTEDTATYFCARGGYRTSGMDPWGPGTLVTVSS
VL: DIVMTQTPASVEVAVGGTVTIKCQASQSISSYLNWYQQKPGQPPKLLIYDALKLASGVPSRFSGSGSGTEYTLTISGVESADAATYYCQQEHSVGNVDNVFGGGTEVVVKR
notes: Rabbit antibody raised against the extracellular domain of mouse TIGIT

More lines, now with the values behind:

B1: hTIGIT-CD4TM-GFP on HEK-293T cells (receptor)
chain: MMTGTIETTGNISAEKGGSIILQCHLSSTTAQVTQVNWEQQDQLLAICNADLGWHISPSFKDRVAPGPGLGLTLQSLTVNDTGEYFCIYHTYPDGTYTGRIFLEVLESSVAEHGARFQIP
notes: Cell surface fusion protein, transiently expressed; also called human TIGIT ECD-CD4TM-GFP; FLAG-hTIGIT-CD4TM-GFP; not shown: transmembrane domain of CD4 (CD4TM); C-terminal GFP protein tag
binding result (hPVR-rbFc fusion protein): binds

B4: anti-TIGIT antibody 313R12 (antibody, mouse IgG2a, kappa, V domains shown)
VH: QVQLESEGGLFKPTDTLTLTCTVSGSSLSSSYMSWVRQAPGKGLEWIGIIGSNGNTYYANWAKGRFTISKTSTTVELKITSPTTEDTATYFCARGGYRTSGMDPWGPGTLVTVSS
VL: DIVMTQTPASVEVAVGGTVTIKCQASQSISSYLNWYQQKPGQPPKLLIYDALKLASGVPSRFSGSGSGTEYTLTISGVESADAATYYCQQEHSVGNVDNVFGGGTEVVVKR
notes: Chimeric antibody: variable regions of 313Rb1 in a mouse IgG2a format
binding result [4]: binds
